This assay concerns the target wild-type metallo-β-lactamase L1 (UniProt P52700). In words: SEC.

Regarding “spin-labeled T163C/K286C mutant of metallo-β-lactamase L1 (enzyme)”, the stoichiometry N (commonly the number of molecules, sites or subunits per partner or assembly) turned out to be 4.

Values taken from paper PMC4733626.
